Measurements from publication PMC3904261 (British Journal of Pharmacology, 2013).
Several values for one entry are separate records, joined by “and”; a condition that tells them apart may be missing. Equal values may be shown once. Values belong to the molecule of their own block, whether it stands above or below them. Bridge positions count the residues as written; N and C are the ends. Ends that are not written are not given here.

What was measured:
[1] = target: T1, CGRP receptor (Homo sapiens, UniProt O60894+Q16602); assay: cAMP production in SK-N-MC cells; format: cell-based; design: relative expression levels of the receptors (endogenous vs. overexpressed); endogenous in cells; host or cells: SK-N-MC cells (ECACC clone; ATCC clone for [Cys5]-CGRP); settings: for cAMP (SK-N-MC) Emax (% CGRP) CGRP analogue: radioreceptor assay, approx. 10 min, means ± SEM, n = 3–6
T1 sequence (Q16602 23-461): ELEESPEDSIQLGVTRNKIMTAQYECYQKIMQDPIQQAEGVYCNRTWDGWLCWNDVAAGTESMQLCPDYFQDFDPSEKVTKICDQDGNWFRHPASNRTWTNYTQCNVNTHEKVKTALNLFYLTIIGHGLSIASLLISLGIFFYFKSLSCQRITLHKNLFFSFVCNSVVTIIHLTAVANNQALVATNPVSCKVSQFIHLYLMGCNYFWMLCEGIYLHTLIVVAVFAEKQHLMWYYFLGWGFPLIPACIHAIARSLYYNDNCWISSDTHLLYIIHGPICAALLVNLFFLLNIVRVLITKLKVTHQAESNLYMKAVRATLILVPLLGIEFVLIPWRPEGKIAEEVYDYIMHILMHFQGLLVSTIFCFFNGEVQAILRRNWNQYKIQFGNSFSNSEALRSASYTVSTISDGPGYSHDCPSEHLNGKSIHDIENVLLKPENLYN
T1 sequence (O60894 27-148): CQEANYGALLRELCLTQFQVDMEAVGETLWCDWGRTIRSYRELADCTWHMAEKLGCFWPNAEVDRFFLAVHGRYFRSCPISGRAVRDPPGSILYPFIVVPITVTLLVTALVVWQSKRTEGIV
Method: (§1) Production of cAMP in SK-N-MC cells for all analogues except [[…]]-hαCGRP was by a radioreceptor assay, as described previously (Poyner et al., [1998]). […] For [[…]]-hαCGRP, a different clone of SK-N-MC cells was used and cAMP production was measured via AlphaScreen (Perkin Elmer, Wellesley, MA, USA), as described previously ([…] et al., [2010]). This assay was also used to investigate the action of all derivatives at the AMY1(a) receptor and other experiments using Cos 7 cells. […] GraphPad Prism 5.00 or 6.00 (GraphPad Software Inc., San Diego, CA, USA) was used for data fitting. Concentration-response curves were fitted to a sigmoidal function with Hill slope constrained to unity to obtain pEC50 and maximum responses (Emax) values. Displacement curves were analysed to obtain pIC50 values. Schild plots were fitted by linear regression to obtain slope and intercepts. pEC50 and pIC50 values were compared with that of human αCGRP using Dunnett's test with either a normal or repeated measures one-way ANOVA, as appropriate.

[2] = target: T2, AMY1(a) receptor (Homo sapiens, UniProt O60894+P30988); assay: cAMP production in Cos 7 cells via the AMY1(a) receptor; format: cell-based; settings: AlphaScreen, means ± SEM
T2 construct: HA; expressed in transfected cells; host or cells: Cos 7
T2 sequence (P30988 25-474): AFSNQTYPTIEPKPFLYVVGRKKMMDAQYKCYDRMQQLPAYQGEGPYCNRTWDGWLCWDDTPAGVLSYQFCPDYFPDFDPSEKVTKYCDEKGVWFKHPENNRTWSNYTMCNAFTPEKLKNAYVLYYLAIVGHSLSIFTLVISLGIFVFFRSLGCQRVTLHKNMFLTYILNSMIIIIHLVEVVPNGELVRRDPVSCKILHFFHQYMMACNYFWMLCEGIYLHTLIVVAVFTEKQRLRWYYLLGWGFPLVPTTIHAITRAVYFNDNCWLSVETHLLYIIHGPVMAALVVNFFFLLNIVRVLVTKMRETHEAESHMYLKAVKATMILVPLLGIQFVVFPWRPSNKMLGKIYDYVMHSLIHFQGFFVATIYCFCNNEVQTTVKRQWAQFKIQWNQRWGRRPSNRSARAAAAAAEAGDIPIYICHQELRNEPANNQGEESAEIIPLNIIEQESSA
T2 sequence (O60894 27-148): as the sequence (O60894 27-148) above
Method: as §1, with “SK-N-MC cells were grown in DMEM/F12 medium supplemented with 10% fetal calf serum as described previously (Poyner et al., [1998]). […] Production” for “Production”

[3] = target: T1, CGRP receptor; assay: β-arrestin 2 translocation in CHO-K1 cells (PathHunter eXpress); format: cell-based; design: host or cells: CHO-K1 (PathHunter eXpress β-arrestin kit); settings: for β-Arrestin (CHO-K1) Emax (% CGRP) CGRP analogue: 2 h stimulation, means ± SEM, n = 3; for reduction of Emax, β-arrestin 2 translocation: CHO-K1 cells, compared with CGRP
Method: GraphPad Prism 5.00 or 6.00 (GraphPad Software Inc., San Diego, CA, USA) was used for data fitting. Concentration–response curves were fitted to a sigmoidal function with Hill slope constrained to unity to obtain pEC50 and maximum responses (Emax) values. Displacement curves were analysed to obtain pIC50 values. Schild plots were fitted by linear regression to obtain slope and intercepts. pEC50 and pIC50 values were compared with that of human αCGRP using Dunnett's test with either a normal or repeated measures one-way ANOVA, as appropriate.

[4] = target: T3, CGRP receptor (calcitonin receptor-like receptor in complex with receptor activity-modifying protein 1) (human (endogenous in SK-N-MC), UniProt Q16602 23-461; O60894 27-148); assay: radioligand binding; displacement of ^125I-CGRP from SK-N-MC cell membranes by unlabelled peptides, microcentrifugation-based binding assay; [Cys^5]-CGRP and its control on another batch of SK-N-MC cells; settings: one partner purified
T3 sequence (Q16602 23-461, chain 1 of 2): as the sequence (Q16602 23-461) above
T3 sequence (O60894 27-148, chain 2 of 2): as the sequence (O60894 27-148) above

[5] = target: T3, CGRP receptor (calcitonin receptor-like …); assay: cell-based or functional assay
[6] = target: AMY_(1(a)) receptor (human HA-tagged CT (a) receptor with human myc-tagged RAMP1) (human) (UniProt O60894)
Sequence of AMY_(1(a)) receptor (human HA-tagged CT (a) receptor with human myc-tagged RAMP1) (human) (O60894 whole entry, looked up): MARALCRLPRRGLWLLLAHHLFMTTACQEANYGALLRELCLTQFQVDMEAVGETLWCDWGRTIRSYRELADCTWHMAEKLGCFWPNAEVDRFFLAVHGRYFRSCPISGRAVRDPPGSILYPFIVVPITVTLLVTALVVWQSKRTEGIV

- EC50 ([1]; AlphaScreen, second SK-N-MC clone, n = 3–4, read-out: pEC50, cAMP, control experiments for cross-compatibility of the two SK-N-MC cell clones (converted)): 26.3 nM and 40.7 nM
- cAMP (SK-N-MC) Emax (% CGRP) CGRP analogue [1]: 100 ± 11 % CGRP
- cAMP (SK-N-MC) Emax (% CGRP) CGRP analogue ([1]; listed as [Ala^6]): 72 ± 12 % CGRP
- cAMP (SK-N-MC) Emax (% CGRP) CGRP analogue ([1]; listed as [Ala^8]): 104 ± 8 % CGRP
- cAMP (SK-N-MC) Emax (% CGRP) CGRP analogue ([1]; listed as [Ala^9]): 103 ± 13 % CGRP
- AMY1(a) receptor-stimulated cAMP Emax (% CGRP) CGRP analogue ([2]; n = 3–6): 161 ± 45 % CGRP
- AMY1(a) receptor-stimulated cAMP Emax (% CGRP) CGRP analogue ([2]; n = 3–6, listed as [Ala^6]): 42 ± 11 % CGRP
- AMY1(a) receptor-stimulated cAMP Emax (% CGRP) CGRP analogue ([2]; n = 3–6, listed as [Ala^8]): 143 ± 11 % CGRP
- AMY1(a) receptor-stimulated cAMP Emax (% CGRP) CGRP analogue ([2]; n = 3–6, listed as [Ala^9]): 89 ± 9 % CGRP
- β-Arrestin (CHO-K1) Emax (% CGRP) CGRP analogue [3]: 73 ± 3 % CGRP
- β-Arrestin (CHO-K1) Emax (% CGRP) CGRP analogue ([3]; listed as [Ala^6]): 43 ± 2.0 % CGRP
- β-Arrestin (CHO-K1) Emax (% CGRP) CGRP analogue ([3]; listed as [Ala^8]): 81 ± 3 % CGRP
- β-Arrestin (CHO-K1) Emax (% CGRP) CGRP analogue ([3]; listed as [Ala^9]): 64 ± 3 % CGRP
- reduction of Emax, β-arrestin 2 translocation ([3]; listed as [Ala^6]-CGRP): ~60%
- reduction of Emax, β-arrestin 2 translocation ([3]; listed as [Ala^8]-CGRP): 20%
Molecule: CC(C)C[C@H](NC(=O)CNC(=O)[C@H](C)NC(=O)[C@H](CC(C)C)NC(=O)[C@H](CCCNC(=N)N)NC(=O)[C@H](Cc1c[nH]cn1)NC(=O)[C@@H](NC(=O)[C@@H](NC(=O)[C@@H]1CSSC[C@H](NC(=O)[C@H](C)N)C(=O)N[C@@H](CC(=O)O)C(=O)N[C@@H](C)C(=O)N[C@@H](C)C(=O)N[C@@H]([C@@H](C)O)C(=O)N1)C(C)C)[C@@H](C)O)C(=O)N[C@@H](CC(C)C)C(=O)N[C@@H](CO)C(=O)N[C@@H](CCCNC(=N)N)C(=O)N[C@@H](CO)C(=O)NCC(=O)NCC(=O)N[C@H](C(=O)N[C@H](C(=O)N[C@@H](CCCCN)C(=O)N[C@@H](CC(N)=O)C(=O)N[C@@H](CC(N)=O)C(=O)N[C@@H](Cc1ccccc1)C(=O)N[C@H](C(=O)N1CCC[C@H]1C(=O)N[C@H](C(=O)N[C@@H](CC(N)=O)C(=O)N[C@H](C(=O)NCC(=O)N[C@@H](CO)C(=O)N[C@@H](CCCCN)C(=O)N[C@@H](C)C(=O)N[C@@H](Cc1ccccc1)C(N)=O)C(C)C)[C@@H](C)O)C(C)C)C(C)C)C(C)C [[Ala^4]]

- pKi [4]: 9.55
- Emax (% CGRP), cAMP production in SK-N-MC cells [5]: 71 % CGRP
- Emax (% CGRP), β-arrestin 2 translocation in CHO-K1 cells expressing the human CGRP receptor [5]: 60 % CGRP
- pEC50, cAMP production in SK-N-MC cells [5]: 7.7
- pEC50, β-arrestin 2 translocation in CHO-K1 cells expressing the human CGRP receptor [5]: 8.58
B1: [Cys^1]-CGRP (peptide)
chain: CCDTATCVTHRLAGLLSRSGGVVKNNFVPTNVGSKAF-NH2
modifications: disulfide 2-7; also: Cys1 Acm protected, removal not given here

- pKi [4]: 7.76
B2: [Lys^6]-CGRP (peptide)
chain: ACDTAKCVTHRLAGLLSRSGGVVKNNFVPTNVGSKAF-NH2
modifications: disulfide 2-7

- Emax (% CGRP), cAMP production in Cos 7 cells with the AMY (1(a)) receptor [6]: 89 % CGRP
- pEC50, cAMP production in Cos 7 cells with the AMY (1(a)) receptor [6]: 8.21
- Emax (% CGRP), cAMP production in SK-N-MC cells [5]: 103 % CGRP
- Emax (% CGRP), β-arrestin 2 translocation in CHO-K1 cells expressing the human CGRP receptor [5]: 64 % CGRP
- pEC50, cAMP production in SK-N-MC cells [5]: 7.3
- pEC50, β-arrestin 2 translocation in CHO-K1 cells expressing the human CGRP receptor [5]: 8.23
B3: [Ala^9]-CGRP (peptide)
chain: ACDTATCVAHRLAGLLSRSGGVVKNNFVPTNVGSKAF-NH2
modifications: disulfide 2-7; N-terminus assumed
SMILES: CC(C)C[C@H](NC(=O)CNC(=O)[C@H](C)NC(=O)[C@H](CC(C)C)NC(=O)[C@H](CCCNC(=N)N)NC(=O)[C@H](Cc1c[nH]cn1)NC(=O)[C@H](C)NC(=O)[C@@H](NC(=O)[C@@H]1CSSC[C@H](NC(=O)[C@H](C)N)C(=O)N[C@@H](CC(=O)O)C(=O)N[C@@H]([C@@H](C)O)C(=O)N[C@@H](C)C(=O)N[C@@H]([C@@H](C)O)C(=O)N1)C(C)C)C(=O)N[C@@H](CC(C)C)C(=O)N[C@@H](CO)C(=O)N[C@@H](CCCNC(=N)N)C(=O)N[C@@H](CO)C(=O)NCC(=O)NCC(=O)N[C@H](C(=O)N[C@H](C(=O)N[C@@H](CCCCN)C(=O)N[C@@H](CC(N)=O)C(=O)N[C@@H](CC(N)=O)C(=O)N[C@@H](Cc1ccccc1)C(=O)N[C@H](C(=O)N1CCC[C@H]1C(=O)N[C@H](C(=O)N[C@@H](CC(N)=O)C(=O)N[C@H](C(=O)NCC(=O)N[C@@H](CO)C(=O)N[C@@H](CCCCN)C(=O)N[C@@H](C)C(=O)N[C@@H](Cc1ccccc1)C(N)=O)C(C)C)[C@@H](C)O)C(C)C)C(C)C)C(C)C

- Emax (% CGRP), cAMP production in Cos 7 cells with the AMY (1(a)) receptor [6]: 143 % CGRP
- pEC50, cAMP production in Cos 7 cells with the AMY (1(a)) receptor [6]: 8.97
- pKi [4]: 9.42
B4: [Ala^8]-CGRP (peptide)
chain: ACDTATCATHRLAGLLSRSGGVVKNNFVPTNVGSKAF-NH2
modifications: disulfide 2-7; N-terminus assumed
SMILES: CC(C)C[C@H](NC(=O)CNC(=O)[C@H](C)NC(=O)[C@H](CC(C)C)NC(=O)[C@H](CCCNC(=N)N)NC(=O)[C@H](Cc1c[nH]cn1)NC(=O)[C@@H](NC(=O)[C@H](C)NC(=O)[C@@H]1CSSC[C@H](NC(=O)[C@H](C)N)C(=O)N[C@@H](CC(=O)O)C(=O)N[C@@H]([C@@H](C)O)C(=O)N[C@@H](C)C(=O)N[C@@H]([C@@H](C)O)C(=O)N1)[C@@H](C)O)C(=O)N[C@@H](CC(C)C)C(=O)N[C@@H](CO)C(=O)N[C@@H](CCCNC(=N)N)C(=O)N[C@@H](CO)C(=O)NCC(=O)NCC(=O)N[C@H](C(=O)N[C@H](C(=O)N[C@@H](CCCCN)C(=O)N[C@@H](CC(N)=O)C(=O)N[C@@H](CC(N)=O)C(=O)N[C@@H](Cc1ccccc1)C(=O)N[C@H](C(=O)N1CCC[C@H]1C(=O)N[C@H](C(=O)N[C@@H](CC(N)=O)C(=O)N[C@H](C(=O)NCC(=O)N[C@@H](CO)C(=O)N[C@@H](CCCCN)C(=O)N[C@@H](C)C(=O)N[C@@H](Cc1ccccc1)C(N)=O)C(C)C)[C@@H](C)O)C(C)C)C(C)C)C(C)C

- pKi [4]: 7.5
B5: [Asp^6]-CGRP (peptide)
chain: ACDTADCVTHRLAGLLSRSGGVVKNNFVPTNVGSKAF-NH2
modifications: disulfide 2-7

- pKi [4]: 9.33
B6: [Cys^6]-CGRP (peptide)
chain: ACDTACCVTHRLAGLLSRSGGVVKNNFVPTNVGSKAF-NH2
modifications: disulfide 2-7; also: Cys6 Acm protected, removal not given here
